Assay results reported in patent US20180155451A1 (published 2018).

How the values were obtained:
[1] = biological target: T1, FcγRIIIa extracellular domain with C-terminal His tag (human, UniProt P08637 17-208); experiment: SPR (Biacore); ratio of He/Con_3a (FcγRIIIa) to He/Con_2b (FcγRIIb)
T1 construct: extracellular domain; also called FcgRIIIa; 3a; not shown: His tag at the C terminus
Procedure: (§1) The heterodimerized antibodies He Abs in which one of the H chains was introduced with an alteration were assayed for their binding activities to each activating FcγR and inhibitory FcγR according to the method described in Example 4. […] The activating FcγRs in FIGS. 26, 27, 28, and 29 are FcγRIa, FcγRIIa (R), FcγRIIa (H), and FcγRIIIa, respectively.
(§2) Analysis of interaction between objective antibody and the FcγR was carried out using Biacore T100 (GE Healthcare). HBS-EP+ (GE Healthcare) was used as the running buffer, and the measurement temperature was set to 25° C. Chips produced by immobilizing the antigen peptide by the amine coupling method to a Series S Sencor Chip CM5 (GE Healthcare), or alternatively, chips produced by allowing preliminarily biotinylated antigen peptides to interact with and immobilize onto a Series S Sensor Chip SA (certified) (GE Healthcare) were used. Antibodies of interest were captured onto an antigen peptide-immobilized chip, and allowed to interact to each FcγR diluted with running buffer. To regenerate and repeatedly use the chip, the antibodies captured on the chip were washed off by reacting 10 mM glycine-HCl, pH 1.5.

[2] = biological target: T2, FcγRIIb extracellular domain with C-terminal His tag (human, UniProt P31994 43-217); experiment: SPR (Biacore), antibody captured, FcγR as analyte; He Ab binding / GpH7-A5/GpH7-B3/GpL16-k0 binding x 100
T2 construct: extracellular domain; also called FcgRIIb; 2b; not shown: His tag at the C terminus
T2 sequence (looked up): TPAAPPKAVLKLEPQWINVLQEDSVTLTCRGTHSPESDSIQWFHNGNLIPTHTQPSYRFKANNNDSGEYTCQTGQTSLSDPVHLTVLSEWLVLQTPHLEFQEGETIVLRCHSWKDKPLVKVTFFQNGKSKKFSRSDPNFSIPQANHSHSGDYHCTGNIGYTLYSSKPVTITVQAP
Procedure: as §1, §2

[3] = biological target: T1, FcγRIIIa extracellular domain with …; experiment: as above
Procedure: as §1, §2

T1 sequence (P08637 17-208): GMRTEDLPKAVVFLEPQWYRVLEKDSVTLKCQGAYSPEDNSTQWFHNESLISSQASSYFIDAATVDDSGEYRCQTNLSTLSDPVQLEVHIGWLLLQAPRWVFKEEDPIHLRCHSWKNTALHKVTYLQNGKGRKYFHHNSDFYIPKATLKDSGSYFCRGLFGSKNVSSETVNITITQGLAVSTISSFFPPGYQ

Binder	He_3a/2b (IIIa/IIb) [1]	He/Con_2b (IIb binding) [2]	He/Con_3a (IIIa binding) [3]
GpH7-A5/GpH7-B3 variant K334_04F/GpL16-k0 (antibody, human IgG1, kappa, position is EU numbering; also called He Ab) heavy 1: not shown heavy 2: not shown light: DIVMTQSPLSLPVTPGEPASISCQASESLVHSNRNTYLHWYLQKPGQSPQLLIYKVSNRFSGVPDRFSGSGSGTDFTLKISRVEAEDVGVYYCSQNTHVPPTFGQGTKVEIERTVAAPSVFIFPPSDEQLKSGTASVVCLLNNFYPREAKVQWKVDNALQSGNSQESVTEQDSKDSTYSLSSTLTLSKADYEKHKVYACEVTHQGLSSPVTKSFNRGEC	1.33 ratio	111 relative, control = 100	148 relative, control = 100
GpH7-A5/GpH7-B3 variant Q295_16H/GpL16-k0 (antibody, human IgG1, kappa, position is EU numbering; also called He Ab) heavy 1: not shown heavy 2: not shown light: DIVMTQSPLSLPVTPGEPASISCQASESLVHSNRNTYLHWYLQKPGQSPQLLIYKVSNRFSGVPDRFSGSGSGTDFTLKISRVEAEDVGVYYCSQNTHVPPTFGQGTKVEIERTVAAPSVFIFPPSDEQLKSGTASVVCLLNNFYPREAKVQWKVDNALQSGNSQESVTEQDSKDSTYSLSSTLTLSKADYEKHKVYACEVTHQGLSSPVTKSFNRGEC	1.22 ratio	62.7 relative, control = 100	76.4 relative, control = 100
GpH7-A5/GpH7-B3 variant Q295_14T/GpL16-k0 (antibody, human IgG1, kappa, position is EU numbering; also called He Ab) heavy 1: not shown heavy 2: not shown light: DIVMTQSPLSLPVTPGEPASISCQASESLVHSNRNTYLHWYLQKPGQSPQLLIYKVSNRFSGVPDRFSGSGSGTDFTLKISRVEAEDVGVYYCSQNTHVPPTFGQGTKVEIERTVAAPSVFIFPPSDEQLKSGTASVVCLLNNFYPREAKVQWKVDNALQSGNSQESVTEQDSKDSTYSLSSTLTLSKADYEKHKVYACEVTHQGLSSPVTKSFNRGEC	1.72 ratio	66.8 relative, control = 100	115 relative, control = 100
GpH7-A5/GpH7-B3 variant K334_08L/GpL16-k0 (antibody, human IgG1, kappa, position is EU numbering; also called He Ab) heavy 1: not shown heavy 2: not shown light: DIVMTQSPLSLPVTPGEPASISCQASESLVHSNRNTYLHWYLQKPGQSPQLLIYKVSNRFSGVPDRFSGSGSGTDFTLKISRVEAEDVGVYYCSQNTHVPPTFGQGTKVEIERTVAAPSVFIFPPSDEQLKSGTASVVCLLNNFYPREAKVQWKVDNALQSGNSQESVTEQDSKDSTYSLSSTLTLSKADYEKHKVYACEVTHQGLSSPVTKSFNRGEC	1.35 ratio	106 relative, control = 100	143 relative, control = 100
GpH7-A5/GpH7-B3 variant K334_07I/GpL16-k0 (antibody, human IgG1, kappa, position is EU numbering; also called He Ab) heavy 1: not shown heavy 2: not shown light: DIVMTQSPLSLPVTPGEPASISCQASESLVHSNRNTYLHWYLQKPGQSPQLLIYKVSNRFSGVPDRFSGSGSGTDFTLKISRVEAEDVGVYYCSQNTHVPPTFGQGTKVEIERTVAAPSVFIFPPSDEQLKSGTASVVCLLNNFYPREAKVQWKVDNALQSGNSQESVTEQDSKDSTYSLSSTLTLSKADYEKHKVYACEVTHQGLSSPVTKSFNRGEC	1.27 ratio	119 relative, control = 100	151 relative, control = 100
GpH7-A5/GpH7-B3 variant S298_04F/GpL16-k0 (antibody, human IgG1, kappa, position is EU numbering; also called He Ab) heavy 1: not shown heavy 2: not shown light: DIVMTQSPLSLPVTPGEPASISCQASESLVHSNRNTYLHWYLQKPGQSPQLLIYKVSNRFSGVPDRFSGSGSGTDFTLKISRVEAEDVGVYYCSQNTHVPPTFGQGTKVEIERTVAAPSVFIFPPSDEQLKSGTASVVCLLNNFYPREAKVQWKVDNALQSGNSQESVTEQDSKDSTYSLSSTLTLSKADYEKHKVYACEVTHQGLSSPVTKSFNRGEC	1.26 ratio	65.4 relative, control = 100	82.5 relative, control = 100
GpH7-A5/GpH7-B3 variant P329_12R/GpL16-k0 (antibody, human IgG1, kappa, position is EU numbering; also called He Ab) heavy 1: not shown heavy 2: not shown light: DIVMTQSPLSLPVTPGEPASISCQASESLVHSNRNTYLHWYLQKPGQSPQLLIYKVSNRFSGVPDRFSGSGSGTDFTLKISRVEAEDVGVYYCSQNTHVPPTFGQGTKVEIERTVAAPSVFIFPPSDEQLKSGTASVVCLLNNFYPREAKVQWKVDNALQSGNSQESVTEQDSKDSTYSLSSTLTLSKADYEKHKVYACEVTHQGLSSPVTKSFNRGEC	1.52 ratio	17.6 relative, control = 100	26.7 relative, control = 100
GpH7-A5/GpH7-B3 variant P329_11K/GpL16-k0 (antibody, human IgG1, kappa, position is EU numbering; also called He Ab) heavy 1: not shown heavy 2: not shown light: DIVMTQSPLSLPVTPGEPASISCQASESLVHSNRNTYLHWYLQKPGQSPQLLIYKVSNRFSGVPDRFSGSGSGTDFTLKISRVEAEDVGVYYCSQNTHVPPTFGQGTKVEIERTVAAPSVFIFPPSDEQLKSGTASVVCLLNNFYPREAKVQWKVDNALQSGNSQESVTEQDSKDSTYSLSSTLTLSKADYEKHKVYACEVTHQGLSSPVTKSFNRGEC	1.76 ratio	16.9 relative, control = 100	29.6 relative, control = 100
GpH7-A5/GpH7-B3 variant K334_09D/GpL16-k0 (antibody, human IgG1, kappa, position is EU numbering; also called He Ab) heavy 1: not shown heavy 2: not shown light: DIVMTQSPLSLPVTPGEPASISCQASESLVHSNRNTYLHWYLQKPGQSPQLLIYKVSNRFSGVPDRFSGSGSGTDFTLKISRVEAEDVGVYYCSQNTHVPPTFGQGTKVEIERTVAAPSVFIFPPSDEQLKSGTASVVCLLNNFYPREAKVQWKVDNALQSGNSQESVTEQDSKDSTYSLSSTLTLSKADYEKHKVYACEVTHQGLSSPVTKSFNRGEC	1.69 ratio	94.8 relative, control = 100	160 relative, control = 100
GpH7-A5/GpH7-B3 variant K334_05P/GpL16-k0 (antibody, human IgG1, kappa, position is EU numbering; also called He Ab) heavy 1: not shown heavy 2: not shown light: DIVMTQSPLSLPVTPGEPASISCQASESLVHSNRNTYLHWYLQKPGQSPQLLIYKVSNRFSGVPDRFSGSGSGTDFTLKISRVEAEDVGVYYCSQNTHVPPTFGQGTKVEIERTVAAPSVFIFPPSDEQLKSGTASVVCLLNNFYPREAKVQWKVDNALQSGNSQESVTEQDSKDSTYSLSSTLTLSKADYEKHKVYACEVTHQGLSSPVTKSFNRGEC	1.27 ratio	105 relative, control = 100	134 relative, control = 100
GpH7-A5/GpH7-B3 variant Q295_13S/GpL16-k0 (antibody, human IgG1, kappa, position is EU numbering; also called He Ab) heavy 1: not shown heavy 2: not shown light: DIVMTQSPLSLPVTPGEPASISCQASESLVHSNRNTYLHWYLQKPGQSPQLLIYKVSNRFSGVPDRFSGSGSGTDFTLKISRVEAEDVGVYYCSQNTHVPPTFGQGTKVEIERTVAAPSVFIFPPSDEQLKSGTASVVCLLNNFYPREAKVQWKVDNALQSGNSQESVTEQDSKDSTYSLSSTLTLSKADYEKHKVYACEVTHQGLSSPVTKSFNRGEC	1.51 ratio	56.9 relative, control = 100	86.1 relative, control = 100
GpH7-A5/GpH7-B3 variant Q295_18N/GpL16-k0 (antibody, human IgG1, kappa, position is EU numbering; also called He Ab) heavy 1: not shown heavy 2: not shown light: DIVMTQSPLSLPVTPGEPASISCQASESLVHSNRNTYLHWYLQKPGQSPQLLIYKVSNRFSGVPDRFSGSGSGTDFTLKISRVEAEDVGVYYCSQNTHVPPTFGQGTKVEIERTVAAPSVFIFPPSDEQLKSGTASVVCLLNNFYPREAKVQWKVDNALQSGNSQESVTEQDSKDSTYSLSSTLTLSKADYEKHKVYACEVTHQGLSSPVTKSFNRGEC	1.26 ratio	64.9 relative, control = 100	81.6 relative, control = 100
GpH7-A5/GpH7-B3 variant S298_03V/GpL16-k0 (antibody, human IgG1, kappa, position is EU numbering; also called He Ab) heavy 1: not shown heavy 2: not shown light: DIVMTQSPLSLPVTPGEPASISCQASESLVHSNRNTYLHWYLQKPGQSPQLLIYKVSNRFSGVPDRFSGSGSGTDFTLKISRVEAEDVGVYYCSQNTHVPPTFGQGTKVEIERTVAAPSVFIFPPSDEQLKSGTASVVCLLNNFYPREAKVQWKVDNALQSGNSQESVTEQDSKDSTYSLSSTLTLSKADYEKHKVYACEVTHQGLSSPVTKSFNRGEC	1.69 ratio	64.5 relative, control = 100	109 relative, control = 100
GpH7-A5/GpH7-B3 variant P329_02A/GpL16-k0 (antibody, human IgG1, kappa, position is EU numbering; also called He Ab) heavy 1: not shown heavy 2: not shown light: DIVMTQSPLSLPVTPGEPASISCQASESLVHSNRNTYLHWYLQKPGQSPQLLIYKVSNRFSGVPDRFSGSGSGTDFTLKISRVEAEDVGVYYCSQNTHVPPTFGQGTKVEIERTVAAPSVFIFPPSDEQLKSGTASVVCLLNNFYPREAKVQWKVDNALQSGNSQESVTEQDSKDSTYSLSSTLTLSKADYEKHKVYACEVTHQGLSSPVTKSFNRGEC	1.39 ratio	40.5 relative, control = 100	56.4 relative, control = 100
GpH7-A5/GpH7-B3 variant K334_06M/GpL16-k0 (antibody, human IgG1, kappa, position is EU numbering; also called He Ab) heavy 1: not shown heavy 2: not shown light: DIVMTQSPLSLPVTPGEPASISCQASESLVHSNRNTYLHWYLQKPGQSPQLLIYKVSNRFSGVPDRFSGSGSGTDFTLKISRVEAEDVGVYYCSQNTHVPPTFGQGTKVEIERTVAAPSVFIFPPSDEQLKSGTASVVCLLNNFYPREAKVQWKVDNALQSGNSQESVTEQDSKDSTYSLSSTLTLSKADYEKHKVYACEVTHQGLSSPVTKSFNRGEC	1.33 ratio	109 relative, control = 100	144 relative, control = 100
